Where no end group is shown, it is not given here.
T1: PRAME peptide on HLA-A*24:02 (human)
T1 peptide: PYLGQMINL

T2: PRAME peptide on HLA-A*24:02 (human, not fully specified (residue 6))
T2 peptide: PYLGQMINL


How the values were obtained:
[1] = biological target: … (SEQ ID NO: 1) HLA-A*24 complex, oxidised form of the peptide (human); test: SPR, soluble TCR over immobilised biotinylated pHLA, equilibrium, 25 C
[2] = biological target: … (SEQ ID NO: 1) HLA-A*24 complex, reduced form of the peptide (human); test: as above
[3] = biological target: T1, PRAME peptide on HLA-A*24:02; test: SPR, equilibrium, 25 C; reduced peptide; soluble, with an engineered disulfide between the constant domains
[4] = biological target: T2, PRAME peptide on HLA-A*24:02; test: SPR, equilibrium, 25 C; oxidised peptide; soluble, with an engineered disulfide between the constant domains

Kd [1]	Kd [2]	Kd [3]	Kd [4]	Binder
193 µM	53 µM	53 µM	193 µM	S10 (TCR) alpha TRAV27 CDR3: GAIWSTLGRLY beta TRBV5-6 CDR3: SSFKGVNQPQH
–	85 µM	85 µM	–	S1 (TCR) alpha TRAV24 CDR3: AFISWRSSGDKLT beta TRBV25 CDR3: ASSSPLSGPLASPLH
241 µM	126 µM	126 µM	241 µM	S6 (TCR) alpha TRAV21 CDR3: AVPNPSARQLT beta TRBV7-9 CDR3: ASSLEGQGVEQF
–	18.9 µM	18.9 µM	–	S4 (TCR) alpha TRAV12-2 CDR3: AVNGPNNAGNMLT beta TRBV6-2/3 CDR3: ASSPGGFGQPQH
–	14.5 µM	14.5 µM	–	S5 (TCR) alpha TRAV12-2 CDR3: AVNKGFQKLV beta TRBV6-1 CDR3: ASSEGWGGQPQH

— patent publication US20250026829A1 (published 2025)
